# Laboratory results reported in publication PMC2570500 (EMBO Reports, 2008).
# Biological target: N-terminal domain of Saccharomyces cerevisiae Hsp82 (1–210) (Saccharomyces cerevisiae, UniProt P02829 1-210)
# Experiment: NMR titration
# N-terminal domain of Saccharomyces cerevisiae Hsp82 (1–210), sequence (P02829 1-210): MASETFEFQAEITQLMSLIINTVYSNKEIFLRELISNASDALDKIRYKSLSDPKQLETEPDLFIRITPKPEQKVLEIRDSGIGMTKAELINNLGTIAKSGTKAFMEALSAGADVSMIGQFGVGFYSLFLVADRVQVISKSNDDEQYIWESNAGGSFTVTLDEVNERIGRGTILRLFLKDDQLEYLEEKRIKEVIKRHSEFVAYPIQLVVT
Binder,binding result,Kd
"CS domain of Arabidopsis SGT1a (149–253), NMR sample (domain or fragment) TAKYRHEYYQKPEEVVVTVFAKGIPKQNVNIDFGEQILSVVIEVPGEDAYYLQPRLFGKIIPDKCKYEVLSTKIEICLAKADIITWASLEHGKGPAVLPKPNVSS",binds,
CS domain of S. cerevisiae Sgt1 (176–290) (domain or fragment) ETAPQESPKFKIDWYQSSTSVTISLFTVNLPESKEQVNIYISPNDRRTLSISYQVPKSGSEFQYNAKLSHEVDPKAVSLKIFPKKLEITLSKIDSTQWKKLEEDILTESSRLSDE,,27 ± 3 µM
